This note sets out measurements from PMC11197462 (Structure (London, England : 1993), 2023).

The target in assay [1] is human LAG3, four Ig-like extracellular domains (D1-D4; residues 1-449) (human, UniProt P18627). As to the kind of experiment: SEC. A general note: Size exclusion chromatography separates by hydrodynamic size, large species first.
The target in a further assay is Fab favezelimab(mut). As to the kind of experiment: SEC.

Sequence of human LAG3, four Ig-like extracellular domains (D1-D4; residues 1-449) (P18627 23-449): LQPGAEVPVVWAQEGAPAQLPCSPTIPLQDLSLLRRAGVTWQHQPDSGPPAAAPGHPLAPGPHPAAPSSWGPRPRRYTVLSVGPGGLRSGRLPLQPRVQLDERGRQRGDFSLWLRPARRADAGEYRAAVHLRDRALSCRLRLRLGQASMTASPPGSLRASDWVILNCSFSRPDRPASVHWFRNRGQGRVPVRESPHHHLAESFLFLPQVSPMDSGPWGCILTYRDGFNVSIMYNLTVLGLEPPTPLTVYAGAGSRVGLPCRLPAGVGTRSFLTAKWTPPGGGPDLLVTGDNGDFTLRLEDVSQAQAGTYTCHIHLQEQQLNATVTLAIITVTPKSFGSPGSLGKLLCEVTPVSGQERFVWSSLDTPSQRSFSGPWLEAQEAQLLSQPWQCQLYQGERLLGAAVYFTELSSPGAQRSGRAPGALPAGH

B1: Fab favezelimab(mut) (Fab, V domains shown)
VH: EVLLLQSGPELVKPGTSVKIPCKASGYTFTDYNVDWVKQRHGKGLEWIGDINPNNGGTIYSQKFKGKATLTVDKSSSTAFMELRSLTSEDTAVYFCARNYRWFGAMDHWGQGTSVTVSS
VL: DIVLTQSPASLAVSPGQRATISCKASQSLDYEGDSDMNWYQQKPGQPPRLLISGASNLESGIPARFSGSGSGTDFTVNIHPVEEEDAATYYCQQSTEDPRTFGGGTKLEIK
In general, stoichiometry N refers to a count of units in the complex or per binding partner. B1: in assay [1], the “stoichiometry N” value was found to be 2. Besides, in the assay with Fab favezelimab(mut), the percent of the protein in the dimer peak came to 85% and the stoichiometry N worked out at 2.
